A value given as a limit tells only on which side of the number the result lay.

What is called Kd is the equilibrium constant for the complex coming apart. By IC50 is commonly meant the concentration that gives 50% inhibition. Low readings indicate inhibition by little substance, high ones a need for much substance.

One series concerns the target TNF-alpha (Homo sapiens, UniProt P01375 P01375:77-233). In words: FP; no value shown, Kd above 1 uM per footnote; filter binding, DPBS. The note with it: tags: Genzyme or R&D Systems; chain copies: 3.
Series [1] concerns the target T1, IFN-gamma (Homo sapiens, UniProt P01579 P01579:24-161). In words: competition; 30 pM 125I-IFN-gamma, A549 cells. The following applies: tags: Genzyme (Cambridge MA); Upstate Biotechnology for early SELEX rounds; chain copies: 2 inferred.
Procedure: The cells were washed 3 times with PBS. […] Incubations were carried out at 4° C. with shaking for 2 hrs. The cells were washed 2 times with cold PBS to remove free IFN and detached with 0.5% SDS.
Series [2] addresses T1, IFN-gamma. In words: filter; biphasic 2.7/103 nM. The following applies: tags: Genzyme (Cambridge MA); Upstate Biotechnology for early SELEX rounds; chain copies: 2 inferred. As for the experimental part:
(§1) The determination of equilibrium dissociation constants (Kds) for RNA pools was made subsequent to rounds 5, 8, 12, and 17 to monitor the progress of each SELEX. The Kds of RNA pools for mouse IFN-gamma (Genzyme Inc., Cambridge Mass.) were also determined after rounds 8 and 17. Kds were determined for individual ligands after cloning and sequencing of RNA pools and truncations (described below). Nitrocellulose filter binding was used to determine Kds as follows: filter discs were placed into a vacuum manifold and wetted with 5 ml of mPBS buffer. ^32P-labeled-RNA was incubated with serial dilutions of IFN-gamma in binding buffer for 5–10 min at 37° C. to allow binding to occur. […] The filter discs were dried and counted in a liquid scintillation counter (Beckmann Instruments, Palo Alto Calif.). Equilibrium dissociation constants were determined by least square fitting of the data points using the Kaleidagraph™ graphics program (Synergy Software, Reading Pa.). […] Biphasic binding constants were calculated according to standard procedures. Kds were determined by least square fitting of the data points using the Kaleidagraph™ graphics program.
(§2) The Kds of individual RNAs within each group were determined by nitrocellulose filter binding as described above. The Kds were determined using either a monophasic or biphasic least squares fit of the data.

Series [3] has as its target T1, IFN-gamma. In words: filter; specificity control. The following applies: tags: Genzyme (Cambridge MA); Upstate Biotechnology for early SELEX rounds; chain copies: 2 inferred.
For the next series, the target named is IL-4 (Homo sapiens, UniProt P05112 P05112:25-153). In words: filter; specificity control. The note with it: tags: R&D Systems.
IL-4, sequence (P05112 25-153, one chain of several): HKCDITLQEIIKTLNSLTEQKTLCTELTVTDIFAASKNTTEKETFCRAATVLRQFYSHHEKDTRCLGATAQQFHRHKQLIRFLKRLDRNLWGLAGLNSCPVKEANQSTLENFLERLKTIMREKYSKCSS
For the next series, the target named is IL-10 (Homo sapiens, UniProt P22301 P22301:19-178). In words: filter; TEM buffer, 37 C. The following applies: tags: Bachem or R & D Systems; chain copies: 2 inferred.
IL-10, sequence (P22301 19-178, one chain of several): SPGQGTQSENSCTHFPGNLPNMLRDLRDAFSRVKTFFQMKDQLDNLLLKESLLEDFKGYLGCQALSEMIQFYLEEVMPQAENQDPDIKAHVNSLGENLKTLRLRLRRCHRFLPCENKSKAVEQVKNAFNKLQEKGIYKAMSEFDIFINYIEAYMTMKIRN
Series [4] concerns the target T1, IFN-gamma. In words: filter; printed as '12 4 nM', decimal uncertain. The note with it: tags: Genzyme (Cambridge MA); Upstate Biotechnology for early SELEX rounds; chain copies: 2 inferred. As for the experimental part: The determination of equilibrium dissociation constants (Kds) for RNA pools was made subsequent to rounds 5, 8, 12, and 17 to monitor the progress of each SELEX. The Kds of RNA pools for mouse IFN-gamma (Genzyme Inc., Cambridge Mass.) were also determined after rounds 8 and 17. Kds were determined for individual ligands after cloning and sequencing of RNA pools and truncations (described below). Nitrocellulose filter binding was used to determine Kds as follows: filter discs were placed into a vacuum manifold and wetted with 5 ml of mPBS buffer. ^32P-labeled-RNA was incubated with serial dilutions of IFN-gamma in binding buffer for 5–10 min at 37° C. to allow binding to occur. Binding mixes were centrifuged as described above to remove aggregates, aspirated through the filter discs, and then immediately washed with 5 ml mPBS buffer. The filter discs were dried and counted in a liquid scintillation counter (Beckmann Instruments, Palo Alto Calif.). Equilibrium dissociation constants were determined by least square fitting of the data points using the Kaleidagraph™ graphics program (Synergy Software, Reading Pa.). […] Biphasic binding constants were calculated according to standard procedures. Kds were determined by least square fitting of the data points using the Kaleidagraph™ graphics program.

The target of series [5] is T1, IFN-gamma. In words: filter; biphasic 1.8/750 nM. The following applies: tags: Genzyme (Cambridge MA); Upstate Biotechnology for early SELEX rounds; chain copies: 2 inferred. As for the experimental part:
as §1, §2

T1 sequence (P01579 24-161, one chain of several): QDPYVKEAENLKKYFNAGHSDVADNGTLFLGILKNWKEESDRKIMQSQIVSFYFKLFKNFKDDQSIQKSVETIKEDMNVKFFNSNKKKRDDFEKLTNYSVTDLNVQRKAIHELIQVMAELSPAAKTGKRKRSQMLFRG
TNF-alpha, sequence (P01375 77-233, one chain of several): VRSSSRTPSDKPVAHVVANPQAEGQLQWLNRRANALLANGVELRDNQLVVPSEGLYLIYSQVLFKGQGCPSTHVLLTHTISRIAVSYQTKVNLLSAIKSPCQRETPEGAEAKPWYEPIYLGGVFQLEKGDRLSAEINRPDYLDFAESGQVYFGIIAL
Procedure for IL-10: Internally-labeled RNA transcripts were prepared by including [γ-^32P]ATP in T7 RNA polymerase transcription reactions. Full-length transcripts were purified on 8% denaturing polyacrylamide gels to ensure size homogeneity. Gel-purified RNA was diluted to a concentration of ~5 nM in TEM buffer, heated to 80° C. then chilled on ice to facilitate secondary structure formation. RNA concentrations were kept lower than 100 pM in binding reactions. Briefly, equal amounts of RNA were incubated with varying amounts of IL-10 in 50 µL of TEM buffer for 10 min at 37° C. RNA-protein mixtures were passed through pre-wet nitrocellulose filters (0.2µ) and the filters were immediately washed with 5 mL of binding buffer. Radioactivity retained on filters was determined by liquid scintillation counting. The quantities of RNA bound to filters in the absence of protein was determined and used for background correction. The percentage of input RNA retained on each filter was plotted against the corresponding log protein concentration. The nonlinear least square method to obtain the dissociation constant (K_d).

B1: TNF 12A (ssRNA)
RNA: GGGAGCUCAGAAUAAACGCUCAACUUCUUGGCCCCGUCUCAAUGUCCGUACUUCUUCGACAUGAGGCCCGGAUCCGGC
In the series with TNF-alpha, B1 yielded a Kd of more than 1000 nM.

B2: IFN-gamma 2'NH2-30 (ssRNA)
RNA: GGGAGGACGAUGCGGCAGGUAAUUACAUGAAGGUGGGUUAGGUACUUUCAGGGUCAGACGACUCGCCCGA
modifications: 2'-NH2 all C and U
With B2, the IC50 with IFN-gamma [1] worked out at 10 nM. Further, the equilibrium dissociation constant (Kd) with IFN-gamma [2] stood at 2.7 nM.

B3: IL-10 ligand 43 (ssRNA)
RNA: GGGAGACAAGAAUAAACGCUCAAACAUCGUAUAACUCUAAGGGCCUGGAUAUACGAUGAAUUCGACAGGAGGCUCACAACAGGC
modifications: 2'-F all C and U
As to B3, the binding result with IFN-gamma [3] and with IL-4 was “no binding” throughout. Besides, the Kd with IL-10 was 213 nM.

B4: IFN-gamma 2'NH2-17 truncate (ssRNA)
RNA: GGGAGGACGAUGCGGUGGUAGCGCGAUAUAGCGCUGGUAGGGUUGCCGGUG
modifications: 2'-NH2 all C and U
With B4, in the series with IFN-gamma [4], the Kd is 12.4 nM.

B5: IFN-gamma 2'NH2-17 (ssRNA)
RNA: GGGAGGACGAUGCGGUGGUAGCGCGAUAUAGCGCUGGUAGGGUUGCCGGUGAUCAGACGACUCGCCCGA
modifications: 2'-NH2 all C and U
Take B5: the Kd in the series with IFN-gamma [5] was 1.8 nM.
